The record followed here is the supplement of paper PMC12764529.

Data set [1] is described as follows: folding stability dG unfold from trypsin proteolysis; higher = more stable. The method in brief: (§1)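 K50 was inferred by Bayesian fitting of sequencing counts obtained after protease digestion of designed mini-proteins. Unfolding free energy was derived by comparison with a sequence-predicted unfolded-state K50 and a shared folded-state K50, for each protease or both combined. The mini-proteins were under 80 residues, had no cysteine, were carried in a PA-tagged cDNA display construct, and were kept only if AlphaFold2 dimer inter-PAE exceeded 15.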

Data set [2] in a line: folding stability dG unfold (combined trypsin and chymotrypsin); higher = more stable. The method in brief:
as §1

The nature of data set [3]: folding stability dG unfold from chymotrypsin proteolysis; higher = more stable. The method in brief:
as §1

± gives the half width of the 95% confidence interval.

For the sequence “SAGGSAGDPSLPQPQYIAFLLVTKPGGVEEPLEVEVKTEEEAEKIAQEVRDAGYEVELELRPAALLSAGGSA [r15_906_JUSTAS]”, the “folding stability dG unfold” value came to 1.72 ± 0.16 kcal/mol in data set [1], 1.44 ± 0.38 kcal/mol in data set [2] and 0.945 ± 0.28 kcal/mol in data set [3].
For “SAGGSAGEIEGEEAAKLVEDALRALDPNVRVEYEPLPGEKPLLLVRVYRVDPESGAETPLATLLIGSAGGSA [r15_682_TrMRF]”, in that order: 1.78 ± 0.05 kcal/mol, 2.4 ± 0.077 kcal/mol and 2.69 ± 0.066 kcal/mol.
For “SAGGSAGETVYRVKIRVNGEELEIEVSAEELEALKALPGLEIELVRVEPAPPPEREETVVPEEEEESAGGSA [r15_443_TrROS_Hall]”, in that order: 3.43 ± 0.17 kcal/mol, 3.43 ± 0.12 kcal/mol and 3.36 ± 0.13 kcal/mol.
Take “SAGGSAGGAANIPADQTLEFPTPDGYRRRLTYYPDEGLLVAEYVNPADGTPTFYTFDIPPDSTLSAGGSAGG [r6_406_TrMRF]”: the figures for the “folding stability dG unfold” value in data set [1], in data set [2] and in data set [3] were 0.864 ± 0.048 kcal/mol, 1.21 ± 0.057 kcal/mol and 1.43 ± 0.084 kcal/mol, respectively.
For “SAGGSAGGAEIVEIEVRKEKRPDGKEVLTVKVKIKLENGEEIEVTVREGMTLEEALKKAKELLKSAGGSAGG [r6_986_TrROS_Hall]”, in that order: 2.1 ± 0.086 kcal/mol, 2.56 ± 0.14 kcal/mol and 2.75 ± 0.12 kcal/mol.
For “SAGGSAGGAELKPVGNDPETGKTAVILLKKPDPTGLVLALEGLSPEELKKLAEIPGYEAVAVLASAGGSAGG [r6_185_TrMRF]”, in that order: 0.996 ± 0.037 kcal/mol, 0.787 ± 0.071 kcal/mol and 0.213 ± 0.23 kcal/mol.
For “SAGGSAGGAPQGSTSSLTDPSTGLRYASTNPPGTSSSFTFPPSVSPEEVAARLRAQGVAGLNLSSAGGSAGG [r6_83_JUSTAS]”, in that order: -0.81 ± 0.35 kcal/mol, 0.0679 ± 0.081 kcal/mol and 0.339 ± 0.073 kcal/mol.
Take “SAGGSAGGAVDPALVSEETTSTSYYPDGTVVTTTTLKVPGKGTTVTLTTVTPLPPSSPSPSASLSAGGSAGG [r6_758_JUSTAS]”: the “folding stability dG unfold” value was found to be 1.13 ± 0.043 kcal/mol in data set [1], 0.761 ± 0.23 kcal/mol in data set [2] and 0.437 ± 0.077 kcal/mol in data set [3].
For “SAGGSAGGDALKELIKNMPPGEPRKITIPIKYEDGRYYRIDIEIQMNPNNGEWQLDIDIEPYPPSAGGSAGG [r6_545_TrROS]”, in that order: 0.881 ± 0.089 kcal/mol, 1.91 ± 0.25 kcal/mol and 2.46 ± 0.054 kcal/mol.
Consider “SAGGSAGGDEKAKEELKKKKPPKIELTVKVEVEVSEDGTVKVKAKVFGPDGKLIAEAEFTFKVKSAGGSAGG [r6_419_TrROS_Hall]”, for which the “folding stability dG unfold” value came out at 1.67 ± 0.19 kcal/mol in data set [1], 2.58 ± 0.38 kcal/mol in data set [2] and 2.5 ± 0.12 kcal/mol in data set [3].
For “SAGGSAGGDIEVRPVGVVPTPDGRLVRVEEVTFPETGRTLLVAVDLEPGRVYVFDPETGEWREESAGGSAGG [r6_114_TrMRF]”, in that order: 0.502 ± 0.091 kcal/mol, 1.41 ± 0.075 kcal/mol and 1.76 ± 0.02 kcal/mol.
For “SAGGSAGGDKAVIVDFNPIEPEAVIYFPKTGKAIKFKFDSLEELRDSIEPSGIPVEIVITPPELSAGGSAGG [r6_27_TrMRF]”, in that order: -0.138 ± 0.19 kcal/mol, 0.141 ± 0.19 kcal/mol and 0.196 ± 0.25 kcal/mol.
For “SAGGSAGGDPNDKPMKFELIETFTIPGNLNEAKDFLEDLLPPNWAINVEQEPGMITITIYKMKDSAGGSAGG [r6_953_TrROS]”, in that order: 1.78 ± 0.17 kcal/mol, 2.22 ± 0.2 kcal/mol and 2.23 ± 0.073 kcal/mol.
For “SAGGSAGGDRIKIRFPDYRYEIEIPPGIESITTIQFHKDGWFTLTIPGNGQQIKIPIPPPDDDPSAGGSAGG [r6_370_TrROS]”, the “folding stability dG unfold” value is 1.23 ± 0.057 kcal/mol in data set [1], 1.51 ± 0.24 kcal/mol in data set [2] and 1.73 ± 0.15 kcal/mol in data set [3].
For “SAGGSAGGDTLTIVVEGMSAEELAALLKELFPDAEVTVTEVGEPRLVTVTVTVKVETEFELPEESAGGSAGG [r6_607_TrROS_Hall]”, in that order: 2.13 ± 0.099 kcal/mol, 2.28 ± 0.1 kcal/mol and 2.36 ± 0.087 kcal/mol.
With “SAGGSAGGEEEELTEEERRELERRRRRLEEERRRRRPPRPRLRLTLTVRLPDGSTVTLEVEIRLSAGGSAGG [r6_844_TrROS_Hall]”, the “folding stability dG unfold” value in data set [1] was 2.2 ± 0.061 kcal/mol; in data set [2], 3.16 ± 0.14 kcal/mol; in data set [3], 3.73 ± 0.056 kcal/mol.
Regarding “SAGGSAGGEEEYYEIEIVLPKEKAEEILEELKKKLPEGWEIVSVEVVEVDEDGYVRLRIVVKRTSAGGSAGG [r6_340_TrROS_Hall]”, the “folding stability dG unfold” value in data set [1] stood at 5.01 ± 0.53 kcal/mol; in data set [2] it was 4.52 ± 0.3 kcal/mol; in data set [3], 4.21 ± 0.14 kcal/mol.
For “SAGGSAGGEEIAKKLRDLAKKLGLDVEIKKIEVTKYPLPEGDENKEEKWVTTITITVNGKKITLSAGGSAGG [r6_686_TrROS_Hall]”, in that order: 2.22 ± 0.053 kcal/mol, 2.37 ± 0.081 kcal/mol and 2.53 ± 0.061 kcal/mol.
